Target: Purified full-length LRRK2 (UniProt Q5S007)
Assay: mass photometry; LRRK2 at 150 nM or 200 nM incubated with constrained peptide 1:7.5 for 30 min at 30 °C; 10 uL added to 10 uL buffer (50 mM HEPES, 150 mM NaCl, 5 mM MgCl2, 1 mM DTT, 0.1 mM GDP, 1% glycerol); Refeyn TwoMP; percentage of dimer from molecular weight
Conditions: remark: other sources report otherwise

- stoichiometry N: 2
Substance: Purified full-length LRRK2, Q5S007 1-2527
